Experimental data as given in publication PMC12182300, “Biochemical impact of p300-mediated acetylation of replication protein A: Implications for DNA metabolic pathway choice” (The Journal of Biological Chemistry, 2025).

Key:
[1] = target: T1, Replication Protein A (RPA), 70 kDa subunit RPA1 (Homo sapiens, UniProt P27694); experiment: RPAi titration of purified Um-RPA binding to ssDNA (gel data, Fig. S6)
T1 construct: Full-length human (h)RPA heterotrimer, unmodified (Um-RPA); with RPA2 and RPA3 (RPA heterotrimer)

[2] = target: T2, Um-RPA (unmodified RPA heterotrimer) (Homo sapiens, UniProt P27694;P15927;P35244 1-616;1-270;1-121); experiment: BLI; KD only in Fig. 4D; smallest fold difference to Ac-RPA; EMSA: 50 mM Tris-HCl pH 8.0, 2 mM DTT, 30 mM NaCl, 0.1 mg/ml BSA, 5% glycerol, 10 min 37 °C; FEN1/RPA flap EMSA: same with 20 mM NaCl, 20 uM EDTA; BLI: 1X HAT buffer, 31.25-250 nM RPA; conditions: protein: recombinant; copies: 1;1;1; label: 3'-biotin (BLI); 5'-TAMRA (EMSA); single strand
RPA1 DBD-F, unmodified = RPA1 DBD-F, unmodified (Homo sapiens, UniProt P27694 1-180); experiment: EMSA; 25-150 nM protein, 25 nM DNA; EMSA: 50 mM Tris-HCl pH 8.0, 2 mM DTT, 30 mM NaCl, 0.1 mg/ml BSA, 5% glycerol, 10 min 37 °C; FEN1/RPA flap EMSA: same with 20 mM NaCl, 20 uM EDTA; BLI: 1X HAT buffer, 31.25-250 nM RPA; conditions: protein: recombinant; tags: C-terminal His6; label: 5'-TAMRA; single strand
[3] = target: T2, Um-RPA (unmodified RPA heterotrimer); experiment: BLI; KD only in Fig. 4D; higher KD than Ac-RPA; EMSA: 50 mM Tris-HCl pH 8.0, 2 mM DTT, 30 mM NaCl, 0.1 mg/ml BSA, 5% glycerol, 10 min 37 °C; FEN1/RPA flap EMSA: same with 20 mM NaCl, 20 uM EDTA; BLI: 1X HAT buffer, 31.25-250 nM RPA; conditions: protein: recombinant; copies: 1;1;1; label: 3'-biotin (BLI); 5'-32P (EMSA); single strand
FEN1 = FEN1 (UniProt P39748 1-380); experiment: EMSA; 50 nM FEN1, 20 uM EDTA; high-affinity binding; EMSA: 50 mM Tris-HCl pH 8.0, 2 mM DTT, 30 mM NaCl, 0.1 mg/ml BSA, 5% glycerol, 10 min 37 °C; FEN1/RPA flap EMSA: same with 20 mM NaCl, 20 uM EDTA; BLI: 1X HAT buffer, 31.25-250 nM RPA; conditions: protein: recombinant; double flap: 20 nt 5' flap (strand 2), 1 nt 3' flap (strand 3); 1:2 1:3; 1 nt 5' overhang on strand 1
FEN1, sequence (P39748 whole entry): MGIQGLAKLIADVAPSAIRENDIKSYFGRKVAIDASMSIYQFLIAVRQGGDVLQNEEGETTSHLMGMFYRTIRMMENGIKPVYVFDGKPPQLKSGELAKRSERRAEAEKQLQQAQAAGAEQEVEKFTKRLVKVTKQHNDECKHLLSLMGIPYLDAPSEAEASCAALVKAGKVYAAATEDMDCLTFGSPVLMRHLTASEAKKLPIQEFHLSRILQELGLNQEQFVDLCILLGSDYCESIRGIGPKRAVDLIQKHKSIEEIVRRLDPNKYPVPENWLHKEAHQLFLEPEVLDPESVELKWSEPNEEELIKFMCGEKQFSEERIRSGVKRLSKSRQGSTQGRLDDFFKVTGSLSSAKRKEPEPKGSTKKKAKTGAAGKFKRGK

T2 sequence (P27694 whole entry, chain 1 of 3): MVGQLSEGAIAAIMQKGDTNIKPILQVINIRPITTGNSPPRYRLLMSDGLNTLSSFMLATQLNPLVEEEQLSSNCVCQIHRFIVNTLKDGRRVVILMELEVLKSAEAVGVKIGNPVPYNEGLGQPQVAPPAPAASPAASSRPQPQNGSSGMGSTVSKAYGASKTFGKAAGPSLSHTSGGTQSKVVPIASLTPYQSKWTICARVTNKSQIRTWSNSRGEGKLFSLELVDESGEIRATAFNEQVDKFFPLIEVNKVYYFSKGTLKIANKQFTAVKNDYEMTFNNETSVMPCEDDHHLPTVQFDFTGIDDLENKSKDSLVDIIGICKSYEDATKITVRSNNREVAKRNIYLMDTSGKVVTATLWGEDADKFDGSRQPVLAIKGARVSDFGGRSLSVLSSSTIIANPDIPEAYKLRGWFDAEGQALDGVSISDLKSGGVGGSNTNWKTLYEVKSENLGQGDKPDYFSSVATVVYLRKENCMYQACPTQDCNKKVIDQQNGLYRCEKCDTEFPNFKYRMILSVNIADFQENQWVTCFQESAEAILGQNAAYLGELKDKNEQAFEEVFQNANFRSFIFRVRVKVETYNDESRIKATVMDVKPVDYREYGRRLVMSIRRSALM
T2 sequence (P15927 whole entry, chain 2 of 3): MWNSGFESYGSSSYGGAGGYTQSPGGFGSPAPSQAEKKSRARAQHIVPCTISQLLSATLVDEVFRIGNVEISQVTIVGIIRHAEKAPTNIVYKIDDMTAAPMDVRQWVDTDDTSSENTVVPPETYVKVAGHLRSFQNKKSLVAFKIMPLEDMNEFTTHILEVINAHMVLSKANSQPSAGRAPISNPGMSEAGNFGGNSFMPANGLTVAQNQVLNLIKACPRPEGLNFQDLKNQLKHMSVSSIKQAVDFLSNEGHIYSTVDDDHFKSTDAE
T2 sequence (P35244 whole entry, chain 3 of 3): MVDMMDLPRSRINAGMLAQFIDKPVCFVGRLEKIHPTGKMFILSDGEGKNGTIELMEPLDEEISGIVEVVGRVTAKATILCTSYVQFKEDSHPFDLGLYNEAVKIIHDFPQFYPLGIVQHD
T1 sequence (P27694 whole entry): as the sequence (P27694 whole entry, chain 1 of 3) above
T1 sequence (P15927 whole entry partner): as the sequence (P15927 whole entry, chain 2 of 3) above
T1 sequence (P35244 2-121 partner): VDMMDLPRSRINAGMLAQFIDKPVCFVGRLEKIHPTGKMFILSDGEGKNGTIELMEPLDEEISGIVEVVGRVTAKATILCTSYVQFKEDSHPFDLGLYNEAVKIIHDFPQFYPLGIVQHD
RPA1 DBD-F, unmodified, sequence (P27694 1-180): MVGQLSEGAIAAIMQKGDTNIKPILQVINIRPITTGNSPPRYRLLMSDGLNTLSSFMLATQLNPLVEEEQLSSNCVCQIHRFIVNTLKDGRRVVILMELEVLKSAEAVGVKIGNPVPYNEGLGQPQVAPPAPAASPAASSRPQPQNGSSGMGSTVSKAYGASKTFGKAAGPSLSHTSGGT

## CCOc1ccc2cc(C3CC(c4ccc(I)cc4)=NN3C(=O)CCCC(=O)O)c(Cl)nc2c1 (stereo not shown) [TDRL-551]
[1]
  IC50: 4.46 ± 0.11 µM

## DA1-73
[1]
  IC50: 6.43 ± 0.29 µM

## TTCACTATAACTACCTAATCTTCTGGCCGTACTGAACTACTGACA (ssDNA) [LB.45 (45 nt)]
[2]
  binding result: binds

## TTCACGAGATTTACTTATTTCACTGCGGCT (ssDNA) [LB.30 (30 nt)]
RPA1 DBD-F, unmodified
  binding result: no binding

## TTCACGCCTGTTAGTTAATTCACTGGCCGTAC (ssDNA) [LB.32 (32 nt)]
[3]
  binding result: binds

B1: 20 nt double flap (U26:D43:T49) (structured_DNA)
DNA 1: GCCCAGTCACGTCGTTGTAAAACGGGTCGTGACTGGGAAAACCCTGGCG
DNA 2: TTAGTTAATTCACTGGCCGTCGTTTTACAACGACGTGACTGGG
DNA 3: CGCCAGGGTTTTCCCAGTCACGACCA
FEN1
  binding result: binds

## TTCACGCCTGTTAGTTAATTCACTGGCC (ssDNA) [LB.28 (28 nt)]
[3]
  binding result: binds
